Reference: patent publication US20230212319A1, “NOVEL ANTIGEN BINDING DOMAINS AND SYNTHETIC ANTIGEN RECEPTORS INCORPORATING THE SAME” (University of Southern California, priority 2020, published 2023)

Experiments:
RAJI cells = assay: JNG assay, co-culture with RAJI cells; assay type: cell-based; settings: JNG cells expressing construct, co-culture with Raji
In short: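 Jurkat-NFAT-GFP (JNG) cells stably expressing SAR constructs via lentiviral transduction and puromycin/blasticidin selection were cocultured with target cells at E:T ~1:2 for ~4–18 h. NFAT-driven GFP was measured by FACS versus parental JNG cells; scores +/- to 5+ denote ~5–50% GFP-positive cells.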

RAJI-CD19-KO cells = assay: JNG assay, co-culture with RAJI-CD19-KO cells; assay type: cell-based; settings: co-culture with Raji-CD19-KO
Method: Cellular supernatant is collected and assayed for the induction of cytokines (e.g., IL2).
JNG (Jurkat cells expressing EGFP under an NFAT promoter) were infected with lentiviral vectors encoding different single chain and multi-chain SARs by spinfection in the presence of 8 µg/ml of Polybrene® (Sigma, Catalog no. H9268). The Jurkat-NFAT-GFP cells are engineered in such a way that the IL-2 promoter, which carries NFAT binding sites, is cloned upstream of the GFP gene. These cells have been used to study signaling via TCR and CAR. The different SARs were stably expressed in Jurkat NFAT-GFP cells by lentiviral mediated gene transfer, followed by selection with puromycin or blasticidin. No drug selection was used in case the construct lacked an antibiotic resistance gene. The SAR-expressing Jurkat-NFAT-GFP cells were cocultured with the target cells at E:T ratio of approximately 1:2 for approximately 4 hours to 18 hours. When the interaction between SIRs and their target antigen results in activation of the NFAT pathway, GFP expression is induced. […] GFP expression was monitored by FACS analysis. The Jurkat-NFAT-GFP (parental) cells were used as control. The structure of different constructs can be determined based on their names. […] The sequence of the other constructs in the table can be similarly determined from their names and by referring to the different Tables of this disclosure that provide the names and SEQ ID NO of the different modules. Alternatively, the composition and modular architecture of the different SAR constructs can be determined from their sequences by bioinformatics tools, including using nucleic acid and amino acids homology searches. A SAR is considered positive in the assay in case the SAR expressing Jurkat-NFAT-GFP cells show greater % GFP positive cells when cultured with the target cell line as compared to parental Jurkat-NFAT-GFP cells. […] In general, the number +/-, +, 2+, 3+, 4+, 5+ refer to approximately 5%, 10%, 20%, 30%, 40% and 50% GFP positive cells. The % of GFP induction in the above assay is dependent not only the relative strength of the SAR but also, among other factors, on the relative level of expression of the SAR in the JNG cells and the relative level of expression of the target antigen in the target cell line. To control for the difference in gene transduction efficiency of the different SAR constructs, the experiment was conducted with JNG cells transduced with SAR constructs co-expressing a drug resistance gene (e.g., puromycin or PAC) followed by drug selection to generate a stable population of SAR-expressing cells. It is to be noted that the drug resistance gene (e.g., PAC) in the SAR constructs is optional and in vivo studies were conducted with SAR constructs lacking the PAC gene.

Molecule | NFAT-GFP ASSAY: Raji (RAJI cells) | NFAT-GFP ASSAY: Raji-CD19-KO (RAJI-CD19-KO cells)
22167 (protein) MALPVTALLLPLALLLHAARPEVQLQESGGGLVQPGGSLRLSCAASGRTFSSLFMGWVRQAPGKGLELVSAISRYSLYTYYADSVKGRFTISRDNAKNTLYLQMNSLRPEDTAVYYCASKLEYTSNDYDSWGQGTLVTVSSGTGGGGSGGGGSGGGGSEFDIQMTQSPSSLSASVGDRVTITCKASDHINNWLAWYQQKPGQAPKLLIYGATTLETGVPSRFSGSGSGTDYTLTISSLQPEDFATYYCQQSWNTPWTFGQGTKLEIKRLEIQNPDPAVYQLRDSKSSDKSVCLFTDFDSQTNVSQSKDSDVYITDKCVLDMRSMDFKSNSAVAWSNKSDFACANAFNNSIIPEDTFFPSSDVPCDVKLVEKSFETDTNLNFQNLSVIGFRILLLKVAGFNLLMTLRLWSSRAKRSGSGVKQTLNFDLLKLAGDVESNPGPTSATMDWIWRILFLVGAATGAHSGPQVQLQESGGGLAQAGGSLRLSCAASGRTFSMGWFRQAPGKEREFVAAITYSGGSPYYASSVRGRFTISRDNAKNTVYLQMNSLKPEDTAVYYCAANPTYGSDWNAENWGQGTQVTVSSGSGGGGSGGGGSGGGGSFEQVQLQQPGAELVKPGASVKMSCKASGYAFSSYWINWMKQKPGQGLEWIGQIYPGDGDTNYNGKFKGRATLTADTSSSTAYMQLSSLTSEDSAVYFCARSITTVVGCAMDYWGQGTSVTVSSTREDLKNVFPPEVAVFEPSKAEIAHTQKATLVCLATGFYPDHVELSWWVNGKEVHSGVCTDPQPLKEQPALNDSRYCLSSRLRVSATFWQNPRNHFRCQVQFYGLSENDEWTQDRAKPVTQIVSAEAWGRADCGITSASYHQGVLSATILYEILLGKATLYAVLVSALVLMAMVKRKDSRGRAKRSGSGATNFSLLKQAGDVEENPGPSRGHMTEYKPTVRLATRDDVPRAVRTLAAAFADYPATRHTVDPDRHIERVTELQELFLTRVGLDIGKVWVADDGAAVAVWTTPESVEAGAVFAEIGPRMAELSGSRLAAQQQMEGLLAPHRPKEPAWFLATVGVSPDHQGKGLGSAVVLPGVEAAERAGVPAFLETSAPRNLPFYERLGFTVTADVEVPEGPRTWCMTRKPGA | + (refer to approximately 5%, 10%, 20%, 30%, 40% and 50% GFP positive cells) | + (refer to approximately 5%, 10%, 20%, 30%, 40% and 50% GFP positive cells)
22113 (protein) MALPVTALLLPLALLLHAARPDIQMTQSPSSLSASVGDRVTITCKASDHINNWLAWYQQKPGQAPKLLIYGATTLETGVPSRFSGSGSGTDYTLTISSLQPEDFATYYCQQSWNTPWTFGQGTKLEIKRLEDLKNVFPPEVAVFEPSKAEIAHTQKATLVCLATGFYPDHVELSWWVNGKEVHSGVCTDPQPLKEQPALNDSRYCLSSRLRVSATFWQNPRNHFRCQVQFYGLSENDEWTQDRAKPVTQIVSAEAWGRADCGITSASYHQGVLSATILYEILLGKATLYAVLVSALVLMAMVKRKDSRGRAKRSGSGATNFSLLKQAGDVEENPGPTSMDWIWRILFLVGAATGAHSGPQVQLQESGGGLAQAGGSLRLSCAASGRTFSMGWFRQAPGKEREFVAAITYSGGSPYYASSVRGRFTISRDNAKNTVYLQMNSLKPEDTAVYYCAANPTYGSDWNAENWGQGTQVTVSSGSGGGGSGGGGSGGGGSFEQVQLQQPGAELVKPGASVKMSCKASGYAFSSYWINWMKQKPGQGLEWIGQIYPGDGDTNYNGKFKGRATLTADTSSSTAYMQLSSLTSEDSAVYFCARSITTVVGCAMDYWGQGTSVTVSSTRIQNPDPAVYQLRDSKSSDKSVCLFTDFDSQTNVSQSKDSDVYITDKCVLDMRSMDFKSNSAVAWSNKSDFACANAFNNSIIPEDTFFPSSDVPCDVKLVEKSFETDTNLNFQNLSVIGFRILLLKVAGFNLLMTLRLWSSRAKRSGSGVKQTLNFDLLKLAGDVESNPGPSRGHMTEYKPTVRLATRDDVPRAVRTLAAAFADYPATRHTVDPDRHIERVTELQELFLTRVGLDIGKVWVADDGAAVAVWTTPESVEAGAVFAEIGPRMAELSGSRLAAQQQMEGLLAPHRPKEPAWFLATVGVSPDHQGKGLGSAVVLPGVEAAERAGVPAFLETSAPRNLPFYERLGFTVTADVEVPEGPRTWCMTRKPGA | 5+ (refer to approximately 5%, 10%, 20%, 30%, 40% and 50% GFP positive cells) | 4+ (refer to approximately 5%, 10%, 20%, 30%, 40% and 50% GFP positive cells)
22120 (protein) MALPVTALLLPLALLLHAARPDIQMTQSPSSLSASVGDRVTITCKASDHINNWLAWYQQKPGQAPKLLIYGATTLETGVPSRFSGSGSGTDYTLTISSLQPEDFATYYCQQSWNTPWTFGQGTKLEIKRLEGQPKANPTVTLFPPSSEELQANKATLVCLISDFYPGAVTVAWKADGSPVKAGVETTKPSKQSNNKYAASSYLSLTPEQWKSHRSYSCQVTHEGSTVEKTVAPTECSGRADCGFTSESYQQGVLSATILYEILLGKATLYAVLVSALVLMAMVKRKDSRGRAKRSGSGATNFSLLKQAGDVEENPGPTSATMDWIWRILFLVGAATGAHSGPQVQLQESGGGLAQAGGSLRLSCAASGRTFSMGWFRQAPGKEREFVAAITYSGGSPYYASSVRGRFTISRDNAKNTVYLQMNSLKPEDTAVYYCAANPTYGSDWNAENWGQGTQVTVSSGSGGGGSGGGGSGGGGSFEQVQLQQPGAELVKPGASVKMSCKASGYAFSSYWINWMKQKPGQGLEWIGQIYPGDGDTNYNGKFKGRATLTADTSSSTAYMQLSSLTSEDSAVYFCARSITTVVGCAMDYWGQGTSVTVSSTRASTKGPSVFPLAPSSKSTSGGTAALGCLVKDYFPEPVTVSWNSGALTSGVHTFPAVLQSSGLYSLSSVVTVPSSSLGTQTYICNVNHKPSNTKVDKRVEPKSCIPEDTFFPSPESSCDVKLVEKSFETDTNLNFQNLSVIGFRILLLKVAGFNLLMTLRLWSSRAKRSGSGVKQTLNFDLLKLAGDVESNPGPSRGHMTEYKPTVRLATRDDVPRAVRTLAAAFADYPATRHTVDPDRHIERVTELQELFLTRVGLDIGKVWVADDGAAVAVWTTPESVEAGAVFAEIGPRMAELSGSRLAAQQQMEGLLAPHRPKEPAWFLATVGVSPDHQGKGLGSAVVLPGVEAAERAGVPAFLETSAPRNLPFYERLGFTVTADVEVPEGPRTWCMTRKPGA | 4+ (refer to approximately 5%, 10%, 20%, 30%, 40% and 50% GFP positive cells) | 3+ (refer to approximately 5%, 10%, 20%, 30%, 40% and 50% GFP positive cells)
22121 (protein) MALPVTALLLPLALLLHAARPDIQMTQSPSSLSASVGDRVTITCKASDHINNWLAWYQQKPGQAPKLLIYGATTLETGVPSRFSGSGSGTDYTLTISSLQPEDFATYYCQQSWNTPWTFGQGTKLEIKRLEGQPKANPTVTLFPPSSEELQANKATLVCLISDFYPGAVTVAWKADGSPVKAGVETTKPSKQSNNKYAASSYLSLTPEQWKSHRSYSCQVTHEGSTVEKTVAPTECSPIKTDVITMDPKDNCSKDANDTLLLQLTNTSAYYMYLLLLLKSVVYFAIITCCLLRRTAFCCNGEKSRAKRSGSGATNFSLLKQAGDVEENPGPTSATMDWIWRILFLVGAATGAHSGPQVQLQESGGGLAQAGGSLRLSCAASGRTFSMGWFRQAPGKEREFVAAITYSGGSPYYASSVRGRFTISRDNAKNTVYLQMNSLKPEDTAVYYCAANPTYGSDWNAENWGQGTQVTVSSGSGGGGSGGGGSGGGGSFEQVQLQQPGAELVKPGASVKMSCKASGYAFSSYWINWMKQKPGQGLEWIGQIYPGDGDTNYNGKFKGRATLTADTSSSTAYMQLSSLTSEDSAVYFCARSITTVVGCAMDYWGQGTSVTVSSTRASTKGPSVFPLAPSSKSTSGGTAALGCLVKDYFPEPVTVSWNSGALTSGVHTFPAVLQSSGLYSLSSVVTVPSSSLGTQTYICNVNHKPSNTKVDKRVEPKSCEVKTDSTDHVKPKETENTKQPSKSCHKPKAIVHTEKVNMMSLTVLGLRMLFAKTVAVNFLLTAKLFFLRAKRSGSGVKQTLNFDLLKLAGDVESNPGPSRGHMTEYKPTVRLATRDDVPRAVRTLAAAFADYPATRHTVDPDRHIERVTELQELFLTRVGLDIGKVWVADDGAAVAVWTTPESVEAGAVFAEIGPRMAELSGSRLAAQQQMEGLLAPHRPKEPAWFLATVGVSPDHQGKGLGSAVVLPGVEAAERAGVPAFLETSAPRNLPFYERLGFTVTADVEVPEGPRTWCMTRKPGA | 5+ (refer to approximately 5%, 10%, 20%, 30%, 40% and 50% GFP positive cells) | 4+ (refer to approximately 5%, 10%, 20%, 30%, 40% and 50% GFP positive cells)
